The source of these data is article PMC3586674.

This data set has as its target T1, ECudA (Entamoeba histolytica, UniProt Q24859 1-283).
T1 sequence: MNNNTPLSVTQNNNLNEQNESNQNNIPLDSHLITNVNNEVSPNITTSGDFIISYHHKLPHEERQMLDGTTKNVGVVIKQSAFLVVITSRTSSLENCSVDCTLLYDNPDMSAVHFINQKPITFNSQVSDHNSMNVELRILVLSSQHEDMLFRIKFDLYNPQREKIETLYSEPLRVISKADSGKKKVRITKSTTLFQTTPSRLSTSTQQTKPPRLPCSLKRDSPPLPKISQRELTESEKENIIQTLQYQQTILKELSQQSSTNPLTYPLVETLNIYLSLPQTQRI
The data set can be described thus: competition.

B1: WT 20-mer (dsDNA)
DNA 1: CACTGTGAGAATTTTCTATT
DNA 2: AATAGAAAATTCTCACAGTG
For B1, the binding result is listed as “binds”.
